{"source": "paper PMC6707742", "target": "coagulation factor IXa (FIXa) (human, UniProt P00740;P00740 47-191;227-461)", "sequence (P00740 47-191, chain 1 of 2)": "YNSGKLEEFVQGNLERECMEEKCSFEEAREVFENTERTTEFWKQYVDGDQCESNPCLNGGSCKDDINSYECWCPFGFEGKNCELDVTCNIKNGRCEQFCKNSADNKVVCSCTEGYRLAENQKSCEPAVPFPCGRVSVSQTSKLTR", "sequence (P00740 227-461, chain 2 of 2)": "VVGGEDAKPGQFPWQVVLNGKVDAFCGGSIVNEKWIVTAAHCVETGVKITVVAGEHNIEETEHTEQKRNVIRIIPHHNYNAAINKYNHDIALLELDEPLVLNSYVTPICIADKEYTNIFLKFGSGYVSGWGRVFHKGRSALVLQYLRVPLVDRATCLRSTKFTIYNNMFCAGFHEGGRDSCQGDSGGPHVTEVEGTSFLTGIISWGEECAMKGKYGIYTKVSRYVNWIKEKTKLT", "experiment": "SPR", "data": [{"binder": "GUGGACUAUACCGCGUAAUGCUGCCUCCAC (XNA, 5' 40 kDa branched mPEG; uppercase 2'-F, lowercase 2'-OMe in GUGGAcuAuAccGcGuAAuGcU(G)CcuCCAC; (G) unmodified; 3' inverted dT)", "note": "[RB006]", "values": [{"measurement": "binding result", "value": "binds"}]}]}
